Measured values taken from US20170067880A1 (Genentech, published 2017).

How the values were obtained:
[1] = target: T1, MBP-SD with C-terminal His tag, expressed in S. aureus (UniProt P0AEX9 27-396 = MBP); experiment: Western blot of MBP fusion constructs expressed in S. aureus
T1 construct: mature; One of the small SD peptide constructs, expressed in S. aureus RN4220 delta sortase; not shown: C-terminal His tag

[2] = target: T2, MBP-DSD with C-terminal His tag, expressed in S. aureus (UniProt P0AEX9 27-396 = MBP); experiment: as above
T2 construct: mature; One of the small SD peptide constructs, expressed in S. aureus RN4220 delta sortase; not shown: C-terminal His tag

[3] = target: T3, MBP-SDS with C-terminal His tag, expressed in S. aureus (UniProt P0AEX9 27-396 = MBP); experiment: as above
T3 construct: mature; One of the small SD peptide constructs, expressed in S. aureus RN4220 delta sortase; not shown: C-terminal His tag

[4] = target: T4, E. coli expressed N-terminal Unizyme tagged SdrD, incubated with S. aureus lysate (Staphylococcus aureus (USA300), UniProt Q2FJ78 36-1347, modified by incubation with cleared lysate of delta-Pan Sdr mutant Newman S. aureus; modification not identified); experiment: Western blot of NiNta-captured E. coli protein after incubation with S. aureus lysate
T4 construct: mature; Made in E. coli 58F3, purified, captured on NiNta resin, then incubated with S. aureus lysate for 1 hr at 37 C; also called E. coli expressed Sdr protein SdrD; not shown: N-terminal Unizyme tag (ST239 vector, Genentech)

[5] = target: T5, E. coli expressed N-terminal Unizyme tagged SdrE, incubated with S. aureus lysate (Staphylococcus aureus (USA300), UniProt Q2FJ77 53-1120, modified by incubation with cleared lysate of delta-Pan Sdr mutant Newman S. aureus; modification not identified); experiment: as above
T5 construct: mature; Made in E. coli 58F3, purified, captured on NiNta resin, then incubated with S. aureus lysate for 1 hr at 37 C; also called E. coli expressed Sdr protein SdrE; not shown: N-terminal Unizyme tag (ST239 vector, Genentech)

[6] = target: T6, E. coli expressed N-terminal Unizyme tagged SdrC, incubated with S. aureus lysate (Staphylococcus aureus (USA300), UniProt Q2FJ79 51-913, modified by incubation with cleared lysate of delta-Pan Sdr mutant Newman S. aureus; modification not identified); experiment: as above
T6 construct: mature; Made in E. coli 58F3, purified, captured on NiNta resin, then incubated with S. aureus lysate for 1 hr at 37 C; also called E. coli expressed Sdr protein SdrC; not shown: N-terminal Unizyme tag (ST239 vector, Genentech)
T6 sequence (Q2FJ79 51-913): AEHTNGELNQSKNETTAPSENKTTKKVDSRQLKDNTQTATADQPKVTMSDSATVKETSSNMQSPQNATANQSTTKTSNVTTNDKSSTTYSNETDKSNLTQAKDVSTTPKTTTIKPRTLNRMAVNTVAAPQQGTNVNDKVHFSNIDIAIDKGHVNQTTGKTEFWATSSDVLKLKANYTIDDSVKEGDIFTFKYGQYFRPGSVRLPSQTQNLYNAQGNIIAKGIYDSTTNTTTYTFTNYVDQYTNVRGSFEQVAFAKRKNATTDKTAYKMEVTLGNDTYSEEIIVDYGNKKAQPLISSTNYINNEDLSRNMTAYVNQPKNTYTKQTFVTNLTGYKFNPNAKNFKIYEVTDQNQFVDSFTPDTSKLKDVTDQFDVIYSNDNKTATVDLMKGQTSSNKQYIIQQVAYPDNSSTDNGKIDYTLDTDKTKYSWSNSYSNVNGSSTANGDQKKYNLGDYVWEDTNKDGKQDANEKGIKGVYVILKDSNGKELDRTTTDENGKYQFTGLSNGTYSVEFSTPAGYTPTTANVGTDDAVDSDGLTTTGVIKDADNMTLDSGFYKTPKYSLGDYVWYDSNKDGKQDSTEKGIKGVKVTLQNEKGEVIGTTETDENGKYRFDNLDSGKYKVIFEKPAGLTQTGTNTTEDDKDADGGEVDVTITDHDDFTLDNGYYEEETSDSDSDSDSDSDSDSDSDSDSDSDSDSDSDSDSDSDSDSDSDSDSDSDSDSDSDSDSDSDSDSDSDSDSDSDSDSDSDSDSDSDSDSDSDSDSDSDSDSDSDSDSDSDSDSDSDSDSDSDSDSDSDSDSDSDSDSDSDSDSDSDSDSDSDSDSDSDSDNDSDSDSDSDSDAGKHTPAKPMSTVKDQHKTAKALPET

T5 sequence (Q2FJ77 53-1120): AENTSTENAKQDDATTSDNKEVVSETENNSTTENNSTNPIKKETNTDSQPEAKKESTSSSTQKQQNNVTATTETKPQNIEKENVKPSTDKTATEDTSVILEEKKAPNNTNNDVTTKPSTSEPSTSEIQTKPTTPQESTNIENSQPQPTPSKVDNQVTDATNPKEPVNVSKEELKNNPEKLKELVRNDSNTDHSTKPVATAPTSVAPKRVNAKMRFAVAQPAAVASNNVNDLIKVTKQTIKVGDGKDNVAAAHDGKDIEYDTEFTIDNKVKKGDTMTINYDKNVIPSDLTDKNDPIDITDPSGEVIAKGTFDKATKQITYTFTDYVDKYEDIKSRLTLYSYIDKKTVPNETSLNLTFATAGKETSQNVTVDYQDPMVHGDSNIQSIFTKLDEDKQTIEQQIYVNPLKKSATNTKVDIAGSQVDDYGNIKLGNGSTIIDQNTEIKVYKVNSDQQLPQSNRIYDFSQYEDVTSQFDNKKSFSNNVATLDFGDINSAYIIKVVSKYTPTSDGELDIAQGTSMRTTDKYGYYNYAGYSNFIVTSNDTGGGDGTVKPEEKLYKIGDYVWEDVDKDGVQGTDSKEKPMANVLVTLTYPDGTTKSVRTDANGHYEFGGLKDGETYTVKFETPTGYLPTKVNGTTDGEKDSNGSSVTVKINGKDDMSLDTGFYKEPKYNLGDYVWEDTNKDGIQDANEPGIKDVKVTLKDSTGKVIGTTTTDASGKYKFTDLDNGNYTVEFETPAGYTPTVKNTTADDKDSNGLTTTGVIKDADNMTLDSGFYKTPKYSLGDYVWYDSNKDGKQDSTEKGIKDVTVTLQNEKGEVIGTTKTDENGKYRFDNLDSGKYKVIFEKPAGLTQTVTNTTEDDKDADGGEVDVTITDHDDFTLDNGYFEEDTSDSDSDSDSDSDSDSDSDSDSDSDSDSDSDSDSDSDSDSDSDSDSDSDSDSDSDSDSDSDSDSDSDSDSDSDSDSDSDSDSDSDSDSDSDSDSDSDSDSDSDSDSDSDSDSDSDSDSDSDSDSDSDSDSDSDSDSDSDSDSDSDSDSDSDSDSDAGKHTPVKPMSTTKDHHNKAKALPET
T4 sequence (Q2FJ78 36-1347): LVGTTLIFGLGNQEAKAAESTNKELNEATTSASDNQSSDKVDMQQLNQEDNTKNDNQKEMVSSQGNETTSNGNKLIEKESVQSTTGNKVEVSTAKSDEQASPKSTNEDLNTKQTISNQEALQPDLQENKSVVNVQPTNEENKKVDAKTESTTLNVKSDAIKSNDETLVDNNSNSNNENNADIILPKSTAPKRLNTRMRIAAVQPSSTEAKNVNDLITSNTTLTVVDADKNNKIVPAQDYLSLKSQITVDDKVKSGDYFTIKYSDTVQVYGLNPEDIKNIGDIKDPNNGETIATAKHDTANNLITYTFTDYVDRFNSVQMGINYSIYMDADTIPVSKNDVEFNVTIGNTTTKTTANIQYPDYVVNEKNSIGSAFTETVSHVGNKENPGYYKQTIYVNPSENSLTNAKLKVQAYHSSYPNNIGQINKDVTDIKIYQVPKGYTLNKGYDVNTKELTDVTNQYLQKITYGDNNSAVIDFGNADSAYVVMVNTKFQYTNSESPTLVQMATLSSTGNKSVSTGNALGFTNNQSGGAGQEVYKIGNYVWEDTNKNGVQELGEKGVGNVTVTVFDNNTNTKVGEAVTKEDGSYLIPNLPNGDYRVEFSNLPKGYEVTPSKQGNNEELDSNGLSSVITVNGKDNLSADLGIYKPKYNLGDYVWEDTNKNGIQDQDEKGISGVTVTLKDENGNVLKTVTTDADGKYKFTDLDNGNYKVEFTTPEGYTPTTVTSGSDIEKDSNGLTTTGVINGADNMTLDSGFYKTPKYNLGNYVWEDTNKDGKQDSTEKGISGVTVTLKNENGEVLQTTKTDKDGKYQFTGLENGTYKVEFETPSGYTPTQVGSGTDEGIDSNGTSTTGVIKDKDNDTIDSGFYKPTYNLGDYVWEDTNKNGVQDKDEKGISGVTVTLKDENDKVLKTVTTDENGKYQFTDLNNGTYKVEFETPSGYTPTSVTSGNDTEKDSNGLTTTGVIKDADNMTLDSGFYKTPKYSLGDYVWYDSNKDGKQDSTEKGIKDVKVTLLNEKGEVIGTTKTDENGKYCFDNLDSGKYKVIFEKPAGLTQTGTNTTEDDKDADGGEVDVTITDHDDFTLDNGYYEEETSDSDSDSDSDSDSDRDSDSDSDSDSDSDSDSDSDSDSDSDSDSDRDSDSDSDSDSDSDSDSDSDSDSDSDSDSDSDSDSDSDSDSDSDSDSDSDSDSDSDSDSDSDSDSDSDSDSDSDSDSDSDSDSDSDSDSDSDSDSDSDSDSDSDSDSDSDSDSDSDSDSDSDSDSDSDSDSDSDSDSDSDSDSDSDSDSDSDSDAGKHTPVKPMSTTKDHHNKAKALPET

B1: antibody F1 (antibody, V domains shown)
VH: EVQLLESGGGLVQPGGSLRLSCAASGFTLSRFAMSWVRQAPGRGLEWVASINNGNNPYYARSVQYRFTVSRDVSQNTVSLQMNNLRAEDSATYFCAKDHPSSGWPTFDSWGPGTLVTVSS
VL: DIQLTQSPSALPASVGDRVSITCRASENVGDWLAWYRQKPGKAPNLLIYKTSILESGVPSRFSGSGSGTEFTLTISSLQPDDFATYYCQHYIRFPYTFGQGTKLEIKR
notes: also called rF1; recombinant F1
binding result [1]: no binding | binding result [2]: no binding | binding result [3]: no binding | binding result [4]: binds | binding result [5]: binds | binding result [6]: binds
